For this assay, the target named is PtdIns5P 4-kinase IIβ, genomically tagged with a FLAG-(His6)2 tag (DT40 cell line JPR3) (chicken (endogenous in DT40)). The experiment in a line: affinity purification with mass spectrometry.

Where “and” joins values, the source holds several entries; their conditions need not be identical. Equal values may be shown once.

With “PtdIns5P 4-kinase IIα, endogenous and untagged (in JPR3 DT40 cells) (from UniProt Q5F356 1-405) (enzyme)”, the ratio IIβ/IIα in the pull-down (peptide set 559/565) is 1.39 and 1.37 and 1.75; the ratio IIβ/IIα in the pull-down (peptide set 829/828) was 0.92 and 1.41 and 1.47.

The values are drawn from publication PMC2943749.
